Laboratory results published in article PMC11408855, “The structure of the SufS–SufE complex reveals interactions driving protected persulfide transfer in iron-sulfur cluster biogenesis” (The Journal of Biological Chemistry, 2024).
Changes are numbered by the printed parent chain. In names and notes the source's numbering stands.

Columns and labels:
Assay in all cases: fluorescence polarisation; 100 nM BODIPY-FL-labeled EcSufE titrated with EcSufS; 50 mM Mops pH 8.0, 150 mM NaCl, 0.1 mg/ml bovine serum albumin, 25 °C, 30 min; absence of cysteine; apparent KD
Settings in all cases: both partners purified
[1] = target: T1, EcSufS, C-terminal his-tagged (wild type) (Escherichia coli, UniProt P77444 1-406, PLP (pyridoxal 5'-phosphate) cofactor)
T1 construct: EcSufS, cysteine desulfurase SufS of Escherichia coli, UniProt P77444; the gene was cloned; also called WT EcSufS; cysteine desulfurase SufS; source: E. coli BL21(DE3)Δsuf, pET44, autoinduction, purified (Ni2+ HisTrap HP); not shown: His tag, C-terminal, kept
T1 sequence: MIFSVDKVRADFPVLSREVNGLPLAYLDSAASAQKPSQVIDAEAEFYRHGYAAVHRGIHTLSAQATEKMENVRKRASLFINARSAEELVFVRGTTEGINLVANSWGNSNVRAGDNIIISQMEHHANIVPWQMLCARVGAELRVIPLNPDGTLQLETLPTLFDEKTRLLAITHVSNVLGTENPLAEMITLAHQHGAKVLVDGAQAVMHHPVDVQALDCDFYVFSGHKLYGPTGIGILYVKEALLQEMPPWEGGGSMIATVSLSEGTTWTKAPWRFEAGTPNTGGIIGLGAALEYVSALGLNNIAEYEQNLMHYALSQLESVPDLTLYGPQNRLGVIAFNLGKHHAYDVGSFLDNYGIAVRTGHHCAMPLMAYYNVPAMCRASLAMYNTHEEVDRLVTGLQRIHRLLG

[2] = target: T2, Y345A EcSufS, C-terminal his-tagged (Escherichia coli, UniProt P77444 1-406, Y345A, PLP (pyridoxal 5'-phosphate) cofactor)
T2 construct: EcSufS of Escherichia coli, UniProt P77444, with Y345A; also called Y345A SufS; source: E. coli BL21(DE3)Δsuf, pET44, autoinduction, purified (Ni2+ HisTrap HP); not shown: His tag, C-terminal, kept
T2 sequence: T1 sequence with Y345A

[3] = target: T3, N353A EcSufS, C-terminal his-tagged (Escherichia coli, UniProt P77444 1-406, N353A, PLP (pyridoxal 5'-phosphate) cofactor)
T3 construct: EcSufS of Escherichia coli, UniProt P77444, with N353A; also called N353A SufS; source: E. coli BL21(DE3)Δsuf, pET44, autoinduction, purified (Ni2+ HisTrap HP); not shown: His tag, C-terminal, kept
T3 sequence: T1 sequence with N353A

[4] = target: T4, Y354A EcSufS, C-terminal his-tagged (Escherichia coli, UniProt P77444 1-406, Y354A, PLP (pyridoxal 5'-phosphate) cofactor)
T4 construct: EcSufS of Escherichia coli, UniProt P77444, with Y354A; also called Y354A SufS; source: E. coli BL21(DE3)Δsuf, pET44, autoinduction, purified (Ni2+ HisTrap HP); not shown: His tag, C-terminal, kept
T4 sequence: T1 sequence with Y354A

B1: BODIPY-FL-labeled C51A/E107C EcSufE (natural protein, Escherichia coli)
chain: MALLPDKEKLLRNFLRCANWEEKYLYIIELGQRLPELRDEDRSPQNSIQGAQSQVWIVMRQNAQGIIELQGDSDAAIVKGLIAVVFILYDQMTPQDIVNFDVRPWFCKMALTQHLTPSRSQGLEAMIRAIRAKAAALS
modifications: BODIPY-FL maleimide label (labeling efficiency 60 to 80%)
notes: EcSufE, transpersulfurase SufE of Escherichia coli, UniProt P76194, with C51A and E107C; also called "WT" EcSufE (double mutant background); C51A/E107C EcSufE control
[1]
  Kd: 5.2 µM
[2]
  Kd: > 20 µM
[3]
  Kd: 0.06 µM
[4]
  Kd: > 20 µM
